Laboratory results from patent US20250171534A1 (D2M BIOTHERAPEUTICS, published 2025).
Changes are numbered by the printed parent chain. Read-outs that look alike come from different tables or passages of the source.

Experiments:
[1] = molecular target: T1, LILRB1-ECD-HIS (SinoBiological Cat #: 16014-H02H) (human, UniProt Q8NHL6 24-461); test: BLI (Gator), RB1-ECD-his
T1 construct: Bought protein; also called monomeric antigen LILRB1-ECD-HIS; not shown: His tag

[2] = molecular target: T2, LILRB2-ECD-HIS (SinoBiological Cat #: 14132-H02H) (human, UniProt Q8N423 22-460); test: BLI (Gator), RB2-ECD-his
T2 construct: Bought protein; also called monomeric antigen LILRB2-ECD-HIS; not shown: His tag
T2 sequence (Q8N423 other isoform, or with tags, fused parts or gaps H02H H02H): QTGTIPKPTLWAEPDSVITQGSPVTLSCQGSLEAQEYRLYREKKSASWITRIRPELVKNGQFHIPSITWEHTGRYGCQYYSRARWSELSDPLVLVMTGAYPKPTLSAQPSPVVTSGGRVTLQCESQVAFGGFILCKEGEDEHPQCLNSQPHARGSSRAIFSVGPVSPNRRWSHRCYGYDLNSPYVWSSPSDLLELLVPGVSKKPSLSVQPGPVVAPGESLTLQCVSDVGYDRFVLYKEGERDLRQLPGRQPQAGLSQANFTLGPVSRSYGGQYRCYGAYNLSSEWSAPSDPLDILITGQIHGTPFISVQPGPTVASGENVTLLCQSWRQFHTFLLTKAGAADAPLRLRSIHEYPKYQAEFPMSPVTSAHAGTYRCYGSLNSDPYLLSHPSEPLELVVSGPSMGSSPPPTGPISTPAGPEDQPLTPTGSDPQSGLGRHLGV

[3] = molecular target: T3, cynomolgus monkey putative LILRB2 (antigen of the Gator measurement) (cynomolgus monkey); test: BLI (Gator), cyno RB2-his
T3 construct: also called cynomolgus monkey LILRB2

[4] = molecular target: T1, LILRB1-ECD-HIS (SinoBiological Cat #: …); test: SPR (Carterra), LILRB1-ECD-his
[5] = molecular target: T2, LILRB2-ECD-HIS (SinoBiological Cat #: …); test: SPR (Carterra), LILRB2-ECD-his
[6] = molecular target: T4, human LILRB1 expressed on cells (human, UniProt Q8NHL6 24-650); test: flow cytometry, Jurkat-LILRB1 cells
T4 construct: In 293T cells it was expressed from pCMV3-LILRB1-GFP; also called CHO-LILRB1; Jurkat-LILRB1
T4 sequence (Q8NHL6 other isoform, or with tags, fused parts or gaps limits assumed): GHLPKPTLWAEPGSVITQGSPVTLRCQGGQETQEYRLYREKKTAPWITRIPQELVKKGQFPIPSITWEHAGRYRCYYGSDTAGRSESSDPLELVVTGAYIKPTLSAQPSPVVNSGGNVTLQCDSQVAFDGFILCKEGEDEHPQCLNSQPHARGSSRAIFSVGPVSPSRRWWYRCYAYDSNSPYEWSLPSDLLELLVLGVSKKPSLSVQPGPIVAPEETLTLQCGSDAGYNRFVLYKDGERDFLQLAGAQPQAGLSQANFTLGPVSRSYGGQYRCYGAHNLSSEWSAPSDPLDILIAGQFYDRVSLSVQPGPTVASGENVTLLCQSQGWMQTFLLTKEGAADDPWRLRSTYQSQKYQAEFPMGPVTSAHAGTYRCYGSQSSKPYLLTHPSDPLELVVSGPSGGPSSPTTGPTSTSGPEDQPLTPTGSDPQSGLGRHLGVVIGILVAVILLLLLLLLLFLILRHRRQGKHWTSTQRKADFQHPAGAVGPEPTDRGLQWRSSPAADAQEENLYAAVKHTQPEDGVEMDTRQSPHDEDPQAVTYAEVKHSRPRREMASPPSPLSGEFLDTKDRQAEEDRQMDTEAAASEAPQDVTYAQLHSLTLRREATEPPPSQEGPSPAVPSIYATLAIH

[7] = molecular target: T5, human LILRB2 expressed on cells (human, UniProt Q8N423 22-597); test: flow cytometry, Jurkat-LILRB2 cells
T5 construct: In 293T cells it was expressed from pCMV3-LILRB2-GFP; also called CHO-LILRB2; Jurkat-LILRB2
T5 sequence (Q8N423 other isoform, or with tags, fused parts or gaps limits assumed): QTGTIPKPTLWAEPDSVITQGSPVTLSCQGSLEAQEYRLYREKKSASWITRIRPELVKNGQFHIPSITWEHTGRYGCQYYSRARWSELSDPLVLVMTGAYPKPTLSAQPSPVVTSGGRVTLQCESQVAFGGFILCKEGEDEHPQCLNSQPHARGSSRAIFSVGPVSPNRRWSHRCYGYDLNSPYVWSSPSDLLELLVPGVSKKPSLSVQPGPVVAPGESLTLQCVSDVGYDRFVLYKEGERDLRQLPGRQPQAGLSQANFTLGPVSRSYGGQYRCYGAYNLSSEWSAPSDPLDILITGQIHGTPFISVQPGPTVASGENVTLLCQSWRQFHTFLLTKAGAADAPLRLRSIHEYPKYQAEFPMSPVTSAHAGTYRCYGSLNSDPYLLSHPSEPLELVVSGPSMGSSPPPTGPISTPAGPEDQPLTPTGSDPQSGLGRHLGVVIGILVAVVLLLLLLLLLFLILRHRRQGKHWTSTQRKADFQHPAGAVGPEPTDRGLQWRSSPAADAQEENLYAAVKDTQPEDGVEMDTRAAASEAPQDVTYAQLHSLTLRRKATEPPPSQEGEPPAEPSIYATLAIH

[8] = molecular target: T4, human LILRB1 expressed on cells; test: flow cytometry, Jurkat-LILRB1 cells; remark: listed apart in the source
[9] = molecular target: T5, human LILRB2 expressed on cells; test: flow cytometry, Jurkat-LILRB2 cells; remark: listed apart in the source
[10] = molecular target: T4, human LILRB1 expressed on cells; test: flow cytometry, Jurkat-LILRB1 cells; blocked ligand: APC HLA-G trimer tetramer
[11] = molecular target: T4, human LILRB1 expressed on cells; test: as above; remark: listed apart in the source
[12] = molecular target: T5, human LILRB2 expressed on cells; test: flow cytometry, Jurkat-LILRB2 cells; blocked ligand: APC HLA-G monomer tetramer
[13] = molecular target: T6, cynomolgus (monkey) LILRB2 expressed on CHO cells (cynomolgus monkey); test: flow cytometry on CHO-cynoLILRB2 cells
T6 construct: whole, on cells; Putative orthologue; also called cynoLILRB2; cynoRB2

[14] = molecular target: T7, LILRA1 expressed on cells (human, UniProt O75019 17-489); test: flow cytometry on CHO-LILRA1 cells, non-linear fit of the curves of FIG. 26E
T7 construct: whole, on cells; GFP-tagged; also called human LILRA1; CHO-LILRA1
T7 sequence (O75019 17-489): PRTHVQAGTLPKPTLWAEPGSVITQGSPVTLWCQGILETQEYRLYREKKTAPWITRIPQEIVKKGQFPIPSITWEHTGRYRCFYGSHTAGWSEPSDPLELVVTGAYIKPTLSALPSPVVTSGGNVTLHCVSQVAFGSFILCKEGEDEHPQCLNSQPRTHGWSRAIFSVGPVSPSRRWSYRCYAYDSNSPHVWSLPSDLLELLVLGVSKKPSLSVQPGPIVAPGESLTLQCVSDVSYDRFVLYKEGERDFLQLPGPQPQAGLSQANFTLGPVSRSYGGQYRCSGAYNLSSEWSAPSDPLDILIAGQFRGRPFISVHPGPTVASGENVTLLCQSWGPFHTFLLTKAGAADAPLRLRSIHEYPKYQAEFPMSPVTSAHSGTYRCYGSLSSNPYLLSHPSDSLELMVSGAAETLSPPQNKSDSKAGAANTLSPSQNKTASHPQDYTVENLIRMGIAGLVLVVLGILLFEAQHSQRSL

[15] = molecular target: T8, LILRA6 expressed on cells (human, UniProt Q6PI73 24-481); test: flow cytometry on CHO-LILRA6 cells, non-linear fit of the curves of FIG. 26F
T8 construct: whole, on cells; GFP-tagged; also called human LILRA6; CHO-LILRA6
T8 sequence (Q6PI73 24-481): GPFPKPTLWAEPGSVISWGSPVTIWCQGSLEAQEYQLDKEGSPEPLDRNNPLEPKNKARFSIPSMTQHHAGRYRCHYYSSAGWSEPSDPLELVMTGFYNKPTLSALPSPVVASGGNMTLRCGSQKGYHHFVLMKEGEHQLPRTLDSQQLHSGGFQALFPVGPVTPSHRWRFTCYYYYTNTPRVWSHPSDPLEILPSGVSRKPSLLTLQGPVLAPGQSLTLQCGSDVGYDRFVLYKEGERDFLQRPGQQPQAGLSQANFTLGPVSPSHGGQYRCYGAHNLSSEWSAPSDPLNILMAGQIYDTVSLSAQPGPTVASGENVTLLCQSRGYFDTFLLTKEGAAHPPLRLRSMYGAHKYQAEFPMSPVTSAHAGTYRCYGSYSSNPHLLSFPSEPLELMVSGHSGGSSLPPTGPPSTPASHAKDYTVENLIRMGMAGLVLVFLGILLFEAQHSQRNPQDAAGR

[16] = molecular target: T4, human LILRB1 expressed on cells; test: flow cytometry on CHO-LILRB1 cells, non-linear fit of the curves of FIG. 26A
[17] = molecular target: T5, human LILRB2 expressed on cells; test: flow cytometry on CHO-LILRB2 cells, non-linear fit of the curves of FIG. 26B
[18] = molecular target: T9, LILRB3 expressed on cells (human, UniProt O75022 24-631); test: flow cytometry on CHO-LILRB3 cells, non-linear fit of the curves of FIG. 26C
T9 construct: whole, on cells; Expressed with a GFP tag from the bought plasmid; also called human LILRB3; CHO-LILRB3

[19] = molecular target: T6, cynomolgus (monkey) LILRB2 expressed on …; test: flow cytometry on CHO-cynoLILRB2 cells, non-linear fit of the curves of FIG. 26D
[20] = molecular target: T4, human LILRB1 expressed on cells; test: flow cytometry on CHO-LILRB1 cells (CHO-RB1), titrated antibody, labelled anti-human Fc, gMFI
[21] = molecular target: T5, human LILRB2 expressed on cells; test: flow cytometry on CHO-LILRB2 cells (CHO-RB2), titrated antibody, labelled anti-human Fc, gMFI
[22] = molecular target: T9, LILRB3 expressed on cells; test: flow cytometry on CHO-LILRB3 cells (CHO-RB3), titrated antibody, labelled anti-human Fc, gMFI
[23] = molecular target: T7, LILRA1 expressed on cells; test: flow cytometry on CHO-LILRA1 cells (CHO-RA1), titrated antibody, labelled anti-human Fc, gMFI
[24] = molecular target: T6, cynomolgus (monkey) LILRB2 expressed on …; test: flow cytometry on CHO-cynoLILRB2 cells (CHO-cyno RB2), titrated antibody, labelled anti-human Fc, gMFI
[25] = molecular target: T5, human LILRB2 expressed on cells; test: flow cytometry, CHO-LILRB2 cells
[26] = molecular target: T4, human LILRB1 expressed on cells; test: flow cytometry, CHO-LILRB1 cells
[27] = molecular target: T1, LILRB1-ECD-HIS (SinoBiological Cat #: …); test: SPR (Carterra LSA), antibody captured, antigen injected;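 note: kd obtained from kinetic analysis of antibody binding to the antigen, with association and dissociation phases fitted in the instrument software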
[28] = molecular target: T2, LILRB2-ECD-HIS (SinoBiological Cat #: …); test: as above
[29] = molecular target: T5, human LILRB2 expressed on cells; test: flow cytometry, CHO-LILRB2 cells; remark: listed apart in the source

T1 sequence (Q8NHL6 other isoform, or with tags, fused parts or gaps H02H H02H): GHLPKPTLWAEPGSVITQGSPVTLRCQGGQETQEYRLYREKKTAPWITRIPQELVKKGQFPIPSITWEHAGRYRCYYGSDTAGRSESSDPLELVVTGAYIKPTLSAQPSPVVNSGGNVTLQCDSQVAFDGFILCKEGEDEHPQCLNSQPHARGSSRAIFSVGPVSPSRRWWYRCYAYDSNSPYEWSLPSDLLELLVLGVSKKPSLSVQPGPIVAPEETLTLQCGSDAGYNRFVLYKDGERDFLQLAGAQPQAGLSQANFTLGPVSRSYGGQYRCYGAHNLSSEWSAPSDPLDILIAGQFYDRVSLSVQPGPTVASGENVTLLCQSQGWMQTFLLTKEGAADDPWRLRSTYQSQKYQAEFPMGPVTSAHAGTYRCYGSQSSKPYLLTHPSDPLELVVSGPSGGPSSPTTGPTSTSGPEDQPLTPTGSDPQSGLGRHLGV

B1: D2M002-103 (antibody, V domains shown)
VH: QVQLVQSGAEVKKPGASVKVSCKASGYTFTRYVMHWVRQAPGQRLEWMGWINPNNEETKYSQKFKGRVTLTRDTSASTAYMELSSLRSEDTAVYYCARADLEILPYYDHARYAMDYWGQGTLVTVSS
VL: DIQMTQSPSSVSASVGDRVTITCRASENIYSHLAWYQQKPGKAPKLLVYNAKSLQSGVPSRFSGSGSGTDFTLTISSLQPEDFATYYCQHFWSTPPTFGGGTKVEIK
notes: also called P212_F01
Question: With B1 as the binder, how does the Kd [1] read?
Answer: 1.1 nM

Question: What about the Kd [2] of the same binder?
Answer: 0.136 nM

Question: What about the Kd [3] of the same binder?
Answer: 1.03 nM

Question: What about the Kd [4] of the same binder?
Answer: 4.9 nM

Question: And the koff [4]?
Answer: 0.00101 s⁻¹

Question: What about the kon [4] of the same binder?
Answer: 206000 M⁻¹ s⁻¹

Question: And the Kd [5]?
Answer: 0.165 nM

Question: What about the koff [5] of the same binder?
Answer: 0.000129 s⁻¹

Question: What about the kon [5] of the same binder?
Answer: 781000 M⁻¹ s⁻¹

Question: And the “EC50 (read off the curve)” value [6]?
Answer: ~0.1 µg/mL

Question: And the “EC50 (read off the curve)” value [7]?
Answer: ~0.06 µg/mL

Question: And the EC50 [8]?
Answer: 0.136 µg/mL

Question: What about the EC50 [9] of the same binder?
Answer: 0.065 µg/mL

Question: And the “IC50 (read off the curve)” value [10]?
Answer: ~0.07 µg/mL

Question: And the IC50 [11]?
Answer: 0.07 µg/mL

Question: And the IC50 [12]?
Answer: 0.009 µg/mL

B2: D2M002-103HV1 (antibody, V domains shown)
VH: B1 VH with M48I, W50Y
VL: B1 VL
notes: Humanized and optimized variant of the D2M002-002 lineage
Question: What does the source list for B2?
Answer: EC50 [13]: 0.059 µg/mL; EC50 [14]: 0.157 µg/mL; MaxMFI [14]: 20300; EC50 [15]: 0.0473 µg/mL; EC50 [16]: 0.0941 µg/mL; MaxMFI [16]: 111000; EC50 [17]: 0.0599 µg/mL; MaxMFI [17]: 30000; EC50 [18]: 0.12 µg/mL; EC50 [19]: 0.059 µg/mL; EC50 (read off the curve) [20]: ~0.1 µg/mL; EC50 (read off the curve) [21]: ~0.06 µg/mL; EC50 (read off the curve) [22]: ~0.1 µg/mL; EC50 (read off the curve) [23]: ~0.2 µg/mL; EC50 (read off the curve) [24]: ~0.06 µg/mL

B3: D2M002-004 (antibody, human IgG1, V domains shown)
VH: EVQLQQSGAELVRPGALVKLSCKASGFNIKDYYMHWVKQRPEQGLEWIGWIDPESGNTIYDPKFQGKASMTADTSSNTAYLQLSSLTSEDTAVYYCARLDGSSYYAMDYWGQGTSVTVSS
VL: DILLTQSPASLAVSLGQRATISCRASESVDSYGNSFMHWYQQKPGQPPKLLIYLASNLESGVPARFSGSGSRTDFTLTIDPVEADDAATYYCQQNNEDPLTFGAGTKLELK
notes: Hit; also called clone #4
Question: Which results are given for B3?
Answer: binding result [25]: no binding (tested: 5 µg/mL); EC50 [26]: 0.004 µg/mL; gMFI (max) [26]: 14300; Kd [27]: 23.6 nM; Kd [28]: 1000 nM

B4: #45 (antibody, human IgG1, V domains shown)
VH: QIQLLQSGPELKKPGETVKISCKASGYTFTDYSMHWVKQAPGKGLKWMGWINTETGEPTYADDFKGRFAFSLETSASTAYLQINNLKNEDTATYFCARVVRRGYFDVWGAGTTVTVSS
VL: DIQMTQSPASLSASVGETVTITCRASGNIHNYLAWYQQKQGKSPQVLVYNAKTLADGVPSRFSGSGSGTQYSLKINSLQPEDFGSYYCQHFWSTPFTFGSGTKLEIK
notes: also called D2M002-045
Question: Does B4 bind [29]?
Answer: no binding (tested: 5 µg/mL)

Question: What about the Kd [27] of the same binder?
Answer: 94.4 nM

Question: What about the Kd [28] of the same binder?
Answer: 1000 nM
